Reference: patent US12570744 (AstraZeneca / MedImmune, dated 2026)

Tests used:
[1] = biological target: T1, human PD-1 expressed on the cell surface of engineered Jurkat cells (human, UniProt Q15116 25-288); experiment: flow cytometry on PD-1^+ Jurkat cells, mean of two experiments
T1 construct: whole, on cells; also called Jurkat PD-1^+TIGIT^- cells; PD-1^+ Jurkat cells

[2] = biological target: T2, human TIGIT expressed on the cell surface (human, UniProt Q495A1 22-244); experiment: flow cytometry on PD-1^-TIGIT^+ Jurkat cells, Experiment #1
T2 construct: whole, on cells; also called Jurkat PD-1^-TIGIT^+ cells; TIGIT^+ Jurkat cells
T2 sequence (looked up): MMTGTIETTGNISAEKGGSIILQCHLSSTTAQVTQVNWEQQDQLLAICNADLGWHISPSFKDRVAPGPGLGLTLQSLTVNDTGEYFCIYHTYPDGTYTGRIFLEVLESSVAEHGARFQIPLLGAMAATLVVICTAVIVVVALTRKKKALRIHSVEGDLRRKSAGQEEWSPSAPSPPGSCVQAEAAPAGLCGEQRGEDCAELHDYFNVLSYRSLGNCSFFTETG
Source text: (§1) TIGIT⁻ cells. […] MFI=geometric mean fluorescence intensity; PD-1=programmed cell-death protein 1; TIGIT=T cell immunoreceptor with Ig and immunoreceptor tyrosine-based inhibitory motif domains. Cellular binding to human single expressing cell lines: Jurkat PD-1⁻ TIGIT⁺ and Jurkat PD-1⁺TIGIT⁻ or human double expressing Jurkat PD-1⁺ TIGIT⁺. Test and control article antibodies were detected with fluorescently conjugated goat anti human IgG secondary antibody and evaluated by flow cytometry.

[3] = biological target: T3, human PD-1 and human TIGIT co-expressed on Jurkat PD-1^+TIGIT^+ cells (human, UniProt Q15116 25-288; Q495A1 22-244); experiment: flow cytometry on PD-1^+TIGIT^+ Jurkat cells, mean
T3 construct: whole, on cells; Two separate receptors on one cell, not a complex; It serves as the target where the read-out cannot be split between PD-1 and TIGIT; also called PD-1^+TIGIT^+ Jurkat; double expressing Jurkat
Source text: as §1

[4] = biological target: T3, human PD-1 and human TIGIT co-expressed …; experiment: flow cytometry on PD-1^+TIGIT^+ Jurkat cells, Experiment #1; PD-1^+TIGIT^+ Jurkat cells, Experiment #1
Source text: as §1

[5] = biological target: T2, human TIGIT expressed on the cell …; experiment: flow cytometry on PD-1^-TIGIT^+ Jurkat cells, Experiment #2
Source text: as §1

[6] = biological target: T2, human TIGIT expressed on the cell …; experiment: cell-based or functional assay
[7] = biological target: T2, human TIGIT expressed on the cell …; experiment: flow cytometry on PD-1^-TIGIT^+ Jurkat cells, mean
Source text: as §1

[8] = biological target: T2, human TIGIT expressed on the cell …; experiment: flow cytometry on TIGIT^+ Jurkat cells, mean of two experiments
[9] = biological target: T1, human PD-1 expressed on the cell …; experiment: flow cytometry on PD-1^+ Jurkat cells
[10] = biological target: T1, human PD-1 expressed on the cell …; experiment: flow cytometry on PD-1^+TIGIT^- Jurkat cells, Experiment #2
[11] = biological target: T1, human PD-1 expressed on the cell …; experiment: cell-based or functional assay
[12] = biological target: T2, human TIGIT expressed on the cell …; experiment: flow cytometry (MFI) on 293 cells overexpressing human TIGIT; Kd row of the table under the graph, the concentration axis is [nM]
[13] = biological target: T3, human PD-1 and human TIGIT co-expressed …; experiment: cell-based or functional assay
[14] = biological target: T1, human PD-1 expressed on the cell …; experiment: flow cytometry on PD-1^+TIGIT^- Jurkat cells, mean
[15] = biological target: T1, human PD-1 expressed on the cell …; experiment: flow cytometry on PD-1^+ Jurkat cells, Experiment #2
[16] = biological target: T4, muTIGIT (mouse TIGIT, recombinant) (mouse (printed as 'mu'), UniProt P86176 29-148, limits assumed); experiment: SPR (BIAcore T200), PD-1/TIGIT DuetMab sample, muTIGIT as ligand
T4 construct: Ligand in the BIAcore assay; The construct is not described
T4 sequence (looked up): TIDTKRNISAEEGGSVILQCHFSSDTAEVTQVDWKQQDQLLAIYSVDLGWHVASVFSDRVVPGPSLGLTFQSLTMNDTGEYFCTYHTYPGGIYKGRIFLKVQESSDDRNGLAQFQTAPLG
Protocol: (§2) Binding experiments were carried out using a BIAcore T200 instrument (BIAcore).

[17] = biological target: T3, human PD-1 and human TIGIT co-expressed …; experiment: flow cytometry on PD-1^+TIGIT^+ Jurkat cells, Experiment #2
Source text: as §1

[18] = biological target: T5, recombinant human TIGIT protein (human, UniProt Q495A1 22-141); experiment: SPR (BIAcore T200), PD-1/TIGIT DuetMab sample, huTIGIT as ligand
T5 construct: In the Octet assay it was used biotinylated on streptavidin sensors or in solution; Construct and tags are not described; also called huTIGIT; human TIGIT antigen
T5 sequence (looked up): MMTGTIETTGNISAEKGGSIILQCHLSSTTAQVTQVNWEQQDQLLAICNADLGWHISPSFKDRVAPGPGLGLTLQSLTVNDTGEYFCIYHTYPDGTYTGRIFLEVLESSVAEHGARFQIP
Protocol: as §2

[19] = biological target: T2, human TIGIT expressed on the cell …; experiment: flow cytometry on TIGIT^+ Jurkat cells, Experiment #2
[20] = biological target: T1, human PD-1 expressed on the cell …; experiment: flow cytometry on PD-1^+TIGIT^- Jurkat cells, Experiment #1
[21] = biological target: T1, human PD-1 expressed on the cell …; experiment: flow cytometry on PD-1^+ Jurkat cells, Experiment #1
[22] = biological target: T6, cyTIGIT (cynomolgus TIGIT, recombinant) (cynomolgus, UniProt A0A7N9I9V4 89-209); experiment: SPR (BIAcore T200), PD-1/TIGIT DuetMab sample, cyTIGIT as ligand
T6 construct: Ligand in the BIAcore assay; The construct is not described
Protocol: as §2

[23] = biological target: T2, human TIGIT expressed on the cell …; experiment: flow cytometry on TIGIT^+ Jurkat cells, Experiment #1
[24] = biological target: T2, human TIGIT expressed on the cell …; experiment: flow cytometry on TIGIT^+ Jurkat cells
[25] = biological target: T7, cynomolgus TIGIT overexpressed on 293 cells (cynomolgus, UniProt A0A7N9I9V4 89-312); experiment: flow cytometry (MFI) on 293 cells overexpressing cynomolgus TIGIT; Kd row of the table under the graph, the concentration axis is [nM]
T7 construct: whole, on cells
T7 sequence (A0A7N9I9V4 entry or part of it): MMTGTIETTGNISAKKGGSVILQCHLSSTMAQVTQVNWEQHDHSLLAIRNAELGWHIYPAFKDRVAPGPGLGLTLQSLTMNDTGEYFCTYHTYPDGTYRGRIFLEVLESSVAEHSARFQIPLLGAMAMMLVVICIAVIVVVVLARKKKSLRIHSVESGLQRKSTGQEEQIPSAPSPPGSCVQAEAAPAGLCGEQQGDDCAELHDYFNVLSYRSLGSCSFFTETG

T3 sequence (Q15116 25-288, one chain of several): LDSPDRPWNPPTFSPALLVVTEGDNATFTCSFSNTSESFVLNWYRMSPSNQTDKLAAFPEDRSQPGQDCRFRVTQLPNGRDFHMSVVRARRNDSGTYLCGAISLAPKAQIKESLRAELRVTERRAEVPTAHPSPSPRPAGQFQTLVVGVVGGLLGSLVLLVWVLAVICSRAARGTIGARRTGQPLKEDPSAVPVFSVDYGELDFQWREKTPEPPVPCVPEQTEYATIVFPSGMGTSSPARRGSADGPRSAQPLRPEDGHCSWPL
T1 sequence (Q15116 25-288, change not shown): as the sequence (Q15116 25-288, one chain of several) above
T6 sequence (A0A7N9I9V4 entry or part of it): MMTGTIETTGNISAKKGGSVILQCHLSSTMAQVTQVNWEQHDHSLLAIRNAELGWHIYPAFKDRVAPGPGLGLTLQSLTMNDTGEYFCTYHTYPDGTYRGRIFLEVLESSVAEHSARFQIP

B1: AZD2936 (PD-1/TIGIT bispecific DuetMab, LO115/VAR1 VHGL-VLGL(M-I)) (bispecific antibody, human IgG1, kappa, lambda)
heavy 1: EVQLVESGGGLVQPGGSLRLSCAASGFTFSDYGMHWVRQAPGKGLEWVAYISSGSYTIYSADSVKGRFTISRDNAKNSLYLQMNSLRAEDTAVYYCARRAPNSFYEYYFDYWGQGTTVTVSSASTKGPSVFPLAPSSKSTSGGTAALGCLVKDYFPEPVTVSWNSGALTSGVHTFPAVLQSSGLYSLSSVVTVPSSSLGTQTYICNVNHKPSNTKVDKRVEPKSCDKTHTCPPCPAPEFEGGPSVFLFPPKPKDTLMISRTPEVTCVVVDVSHEDPEVKFNWYVDGVEVHNAKTKPREEQYNSTYRVVSVLTVLHQDWLNGKEYKCKVSNKALPASIEKTISKAKGQPREPQVCTLPPSREEMTKNQVSLSCAVKGFYPSDIAVEWESNGQPENNYKTTPPVLDSDGSFFLVSKLTVDKSRWQQGNVFSCSVMHEALHNHYTQKSLSLSPGK
light 1: QIVLTQSPATLSLSPGERATLSCSASSKHTNLYWSRHMYWYQQKPGQAPRLLIYLTSNRATGIPARFSGSGSGTDFTLTISSLEPEDFAVYYCQQWSSNPFTFGQGTKLEIKRTVAAPSVFIFPPSDEQLKSGTASVVCLLNNFYPREAKVQWKVDNALQSGNSQESVTEQDSKDSTYSLSSTLTLSKADYEKHKVYACEVTHQGLSSPVTKSFNRGEC
heavy 2: not shown
light 2: not shown
notes: also called VAR1 (LO115/VHGL-VLGL(M-I)); VL GL (CDRL1 M-I) + VH GL
[1]
  EC50: 3.22 nM
[2]
  EC50: 0.282 nM
[3]
  EC50: 0.632 nM
[4]
  EC50: 0.495 nM
[5]
  EC50: 0.346 nM
[6]
  EC50 (nM), NFAT-luciferase reporter, Experiment #1: 17 nM
  EC50 (nM), NFAT-luciferase reporter, Experiment #2: 13.7 nM
  Fold Change of Mean EC50 vs. Anti-TIGIT: 6.89 fold
  Mean EC50 (nM), NFAT-luciferase reporter: 15.3 nM
[7]
  EC50: 0.314 nM
[8]
  EC50: 0.339 nM
[9]
  Fold Change vs. anti-PD-1 (mean EC50): 4.82 fold
[10]
  EC50: 1.01 nM
[11]
  EC50 (nM), NFAT-luciferase reporter, Experiment #1: 4.7 nM
  EC50 (nM), NFAT-luciferase reporter, Experiment #2: 3.83 nM
  Fold Change of Mean EC50 vs. Anti-PD-1: 1.4 fold
  Mean EC50 (nM), NFAT-luciferase reporter: 4.26 nM
[12]
  Kd: 3.42 nM
[13]
  EC50 (nM), NFAT-luciferase reporter, Experiment #1: 5.57 nM
  EC50 (nM), NFAT-luciferase reporter, Experiment #2: 6.07 nM
  Fold Change of Mean EC50 vs. Anti-TIGIT and Anti-PD-1 combination: 0.93 fold
  Mean EC50 (nM), NFAT-luciferase reporter: 5.82 nM
[14]
  EC50: 0.797 nM
[15]
  EC50: 5.49 nM
[16]
  Kd: 2.9 nM
  koff: 0.00631 s⁻¹
  kon: 2.17e+06 M⁻¹ s⁻¹
[17]
  EC50: 0.769 nM
[18]
  Kd: 0.015 nM
  koff: 6.57e-05 s⁻¹
  kon: 4.37e+06 M⁻¹ s⁻¹
[19]
  EC50: 0.375 nM
[20]
  EC50: 0.584 nM
[21]
  EC50: 0.944 nM
[22]
  Kd: 41.1 nM
  koff: 0.0411 s⁻¹
  kon: 999000 M⁻¹ s⁻¹
[23]
  EC50: 0.303 nM
[24]
  Fold Change vs. anti-TIGIT (mean EC50): 2.85 fold
[25]
  Kd: 19.9 nM
